Assay results taken from patent US20110129476A1 (MAX PLANCK GESELLSCHAFT ZUR FORDERUNG DER WISSENSCHAFTEN E V, published 2011).

Tests used:
[1] = target: T1, ERp44, endogenous protein of murine K46 B cells (mouse, UniProt Q9D1Q6 30-406); test: formaldehyde crosslinking, α-MZB1 immunoprecipitation and mass spectrometry; co-immunoprecipitation of endogenous proteins from K46 extracts
T1 sequence (looked up): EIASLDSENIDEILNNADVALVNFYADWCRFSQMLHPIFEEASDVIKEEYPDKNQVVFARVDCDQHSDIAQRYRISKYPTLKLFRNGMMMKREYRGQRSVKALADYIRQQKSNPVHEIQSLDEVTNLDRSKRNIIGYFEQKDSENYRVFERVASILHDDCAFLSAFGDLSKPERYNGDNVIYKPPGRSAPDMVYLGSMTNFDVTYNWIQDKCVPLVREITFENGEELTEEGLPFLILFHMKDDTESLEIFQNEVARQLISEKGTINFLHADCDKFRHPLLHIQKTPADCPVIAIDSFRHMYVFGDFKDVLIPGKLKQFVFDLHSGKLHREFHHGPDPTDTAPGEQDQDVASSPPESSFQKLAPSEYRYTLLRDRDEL
Experimental: (§1) Approximately […] of K46 mature B cells were cultured until reaching the exponential growth phase, harvested and in vivo formaldehyde crosslinking was performed by adding 1% formaldehyde (final concentration) directly to the K46 cell culture. Cells were incubated for 10 min at 37° C. and 5% CO₂ and the crosslinking reaction was quenched by addition of 2.5M glycine with a final concentration of 125 mM. After crosslinking, cells were collected, washed with ice-cold PBS and frozen at −80° C. prior to lysis. […] The immunoprecipitated proteins were eluted with sample buffer and separated on a 4%-12% gradient SDS-PAGE. The gel was silver stained. The marked bands (arrow) were cut out and prepared for mass spectrometry analysis.

[2] = target: T2, ERp57, endogenous protein of murine K46 B cells (mouse, UniProt P27773 25-505); test: as above
T2 sequence (looked up): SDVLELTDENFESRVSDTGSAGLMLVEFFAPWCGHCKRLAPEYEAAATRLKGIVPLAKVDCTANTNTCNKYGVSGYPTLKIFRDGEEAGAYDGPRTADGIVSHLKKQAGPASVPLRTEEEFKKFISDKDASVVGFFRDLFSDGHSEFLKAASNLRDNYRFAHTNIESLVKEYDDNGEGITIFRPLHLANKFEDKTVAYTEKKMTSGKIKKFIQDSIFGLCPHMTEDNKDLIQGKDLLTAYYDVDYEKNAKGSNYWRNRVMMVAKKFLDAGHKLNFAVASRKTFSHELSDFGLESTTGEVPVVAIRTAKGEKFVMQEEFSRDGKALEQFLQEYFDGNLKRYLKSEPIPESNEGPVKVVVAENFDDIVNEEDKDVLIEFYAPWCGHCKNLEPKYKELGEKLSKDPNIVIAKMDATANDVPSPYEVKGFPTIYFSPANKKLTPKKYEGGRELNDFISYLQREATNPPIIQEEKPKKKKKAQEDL
Experimental: as §1

[3] = target: GRP94 (Endoplasmin), endogenous protein of murine K46 B cells (mouse, UniProt P08113 22-802); test: as above
GRP94 (Endoplasmin), endogenous protein of murine K46 B cells, sequence (P08113 22-802 limits assumed): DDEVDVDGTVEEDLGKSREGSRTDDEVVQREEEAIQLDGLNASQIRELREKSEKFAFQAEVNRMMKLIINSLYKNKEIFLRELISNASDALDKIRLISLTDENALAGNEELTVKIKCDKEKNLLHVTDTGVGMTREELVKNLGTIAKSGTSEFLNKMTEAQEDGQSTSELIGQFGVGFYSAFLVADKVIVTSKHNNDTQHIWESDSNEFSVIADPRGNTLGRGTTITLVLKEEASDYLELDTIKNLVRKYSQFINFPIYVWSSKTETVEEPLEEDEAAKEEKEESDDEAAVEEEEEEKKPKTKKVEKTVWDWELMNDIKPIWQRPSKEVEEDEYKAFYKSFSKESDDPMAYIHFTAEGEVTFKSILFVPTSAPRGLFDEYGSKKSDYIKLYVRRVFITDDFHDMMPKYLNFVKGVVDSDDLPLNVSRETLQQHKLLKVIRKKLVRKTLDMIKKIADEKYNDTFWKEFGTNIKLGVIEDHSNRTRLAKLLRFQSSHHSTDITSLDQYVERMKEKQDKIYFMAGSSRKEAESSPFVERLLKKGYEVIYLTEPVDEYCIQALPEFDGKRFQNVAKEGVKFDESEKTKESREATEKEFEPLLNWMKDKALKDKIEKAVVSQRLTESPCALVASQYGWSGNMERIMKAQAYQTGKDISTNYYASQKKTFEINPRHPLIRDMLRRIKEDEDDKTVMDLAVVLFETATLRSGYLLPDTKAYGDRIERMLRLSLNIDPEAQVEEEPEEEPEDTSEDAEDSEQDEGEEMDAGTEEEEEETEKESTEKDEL
Experimental: as §1

[4] = target: RACK1 (receptor for activated C kinase 1), endogenous protein of murine K46 B cells (mouse, UniProt P68040 1-317); test: reciprocal co-immunoprecipitation (α-RACK1; α-MZB1 5C11 Sepharose) from membrane and cytosolic fractions of K46 B cells, immunoblot

binding result [1]: binds
binding result [2]: binds
binding result [3]: binds
binding result [4]: binds
B1: MZB1 (marginal zone B1 B cell factor 1), endogenous protein of murine K46 mature B cells (other)
chain: GDRVSLSASAPTLDDEEKYSAHMPAHLRCDACRAVAFQMGQRLAKAEAKSHTPDASGLQELSESTYTDVLDQTCSQNWQSYGVHEVNQMKRLTGPGLSKGPEPRISVMISGGPWPNRLSKTCFHYLGEFGEDQIYEAYRQGQANLEALLCGGTHGPCSQEILAQREEL
notes: Endogenous protein in K46 cell extracts (whole cell, membrane or cytosolic fraction); also called AL1
